{
  "source": "paper PMC10170137",
  "about": "(Nature Communications, 2023)",
  "molecules": {"B1": {"name": "Denitrovibrio acetiphilus N-acetyl-γ-glutamyl phosphate reductase (DaArgC), wild type (enzyme)", "chain": "MKVSVIGATGYTGYELVKILANHPEFEIAALVSETYADKMFSDVYPRLRSICDVVITGRDYDAVAEISDAVFLCLPHAAAQDAAAFFYEKGLKVVDFSADFRLKDKKLYEATYKVDHTYPDLLRKAVYGLPEIFEVDIKKAELVANPGCYPTSVITPLYPLLKAGLISPEGIIADSKSGVTGAGRKADIAYSFCECNEDFRPYAIFSHRHNPEINEVLKETGKETNVLFTPHLIPASKGIESTIYTKTTAGLAEISACLKDFYRERRCVRIYDNGHIPSTADVTDTNFIDIGLFVKGERLIIVSCIDNLIKGSSGMAVQNMNLMCGFDDTLGIL", "notes": "N-acetyl-γ-glutamyl phosphate reductase (ArgC) of Denitrovibrio acetiphilus; also called WT DaArgC; Denitrovibrio acetiphilus N-acetyl-γ-glutamyl phosphate dehydrogenase; source: E. coli BL21 (DE3), purified (Ni-Sepharose HisTrap FF, Superdex 200 SEC)"}, "B2": {"name": "DaArgC3, triple substitution variant (G182V, S178V, L233I) of Denitrovibrio acetiphilus N-acetyl-γ-glutamyl phosphate reductase (enzyme)", "chain": "B1 chain with S178V, G182V, L233I", "notes": "N-acetyl-γ-glutamyl phosphate reductase (ArgC) of Denitrovibrio acetiphilus with G182V, S178V and L233I; Found by iterative saturation mutagenesis of DaArgC; also called formyl phosphate reductase variant; source: E. coli BL21 (DE3), purified (Ni-Sepharose HisTrap FF, Superdex 200 SEC)"}, "B3": {"name": "DaArgC (Denitrovibrio acetiphilus DSM 12809; G182V) (protein)", "chain": "B1 chain with G182V", "notes": "dimer"}, "B4": {"name": "DaArgC (Denitrovibrio acetiphilus DSM 12809; G182V/L233I/S178V) (protein)", "chain": "B1 chain with S178V, G182V, L233I", "notes": "dimer"}, "B5": {"name": "DaArgC (Denitrovibrio acetiphilus DSM 12809; G182V/S178V) (protein)", "chain": "B1 chain with S178V, G182V", "notes": "dimer"}},
  "key": {"[1]": {"biological_target": "T1, DaArgC (Denitrovibrio acetiphilus, UniProt D4H3H4)", "T1 construct": "gene argC; dimer", "T1 sequence (D4H3H4 1-334)": "B1 chain", "test": "Nash assay of formaldehyde, inhibition of formyl phosphate reductase activity; coupled to EcAckA", "assay_type": "biochemical", "details": "read-out: N-acetyl-γ-glutamate / IC50", "excerpt": "(§1) Nash assay of formaldehyde, inhibition of formyl phosphate reductase activity; coupled to EcAckA on DaArgC"}, "[2]": {"biological_target": "T2, DaArgC (Denitrovibrio acetiphilus, UniProt D4H3H4, G182V/L233I/S178V)", "T2 construct": "gene argC; dimer", "T2 sequence (D4H3H4 entry or part of it S178V/G182V/L233I)": "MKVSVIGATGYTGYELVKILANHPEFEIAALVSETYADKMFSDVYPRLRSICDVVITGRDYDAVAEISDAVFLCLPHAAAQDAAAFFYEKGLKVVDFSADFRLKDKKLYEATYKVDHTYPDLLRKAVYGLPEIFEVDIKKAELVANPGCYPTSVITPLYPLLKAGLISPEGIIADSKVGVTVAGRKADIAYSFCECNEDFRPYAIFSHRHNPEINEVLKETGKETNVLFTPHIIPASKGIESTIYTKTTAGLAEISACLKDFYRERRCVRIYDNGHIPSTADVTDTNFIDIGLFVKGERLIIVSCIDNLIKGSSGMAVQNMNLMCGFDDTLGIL", "test": "Nash assay of formaldehyde, inhibition of formyl phosphate reductase activity; coupled to EcAckA", "assay_type": "biochemical", "details": "read-out: N-acetyl-γ-glutamate / IC50", "excerpt": "as §1"}, "[3]": {"biological_target": "T3, EcArgC (Escherichia coli, UniProt P11446)", "T3 construct": "gene argC", "T3 sequence (P11446 1-334)": "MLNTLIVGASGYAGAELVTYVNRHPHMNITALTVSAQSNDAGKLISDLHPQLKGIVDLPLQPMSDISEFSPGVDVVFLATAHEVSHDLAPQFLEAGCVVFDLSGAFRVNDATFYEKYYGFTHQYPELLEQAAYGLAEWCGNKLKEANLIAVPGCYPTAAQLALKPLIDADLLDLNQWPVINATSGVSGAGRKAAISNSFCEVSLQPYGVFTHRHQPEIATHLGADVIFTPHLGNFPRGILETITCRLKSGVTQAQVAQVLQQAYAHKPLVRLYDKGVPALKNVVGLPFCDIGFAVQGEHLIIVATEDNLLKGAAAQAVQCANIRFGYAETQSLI", "test": "Nash assay of formaldehyde; coupled to EcAckA", "assay_type": "biochemical", "details": "formyl phosphate made in situ by 2 µM EcAckA from 50 mM ammonium formate and 5 mM ATP; 250 µM NAD(P)H, 1 mM CoA, 10 mM MgCl2, MOPS-KOH pH 7.0, 30 °C"}, "[4]": {"biological_target": "T4, EcProA (Escherichia coli, UniProt P07004)", "T4 construct": "gene proA", "T4 sequence (P07004 1-417)": "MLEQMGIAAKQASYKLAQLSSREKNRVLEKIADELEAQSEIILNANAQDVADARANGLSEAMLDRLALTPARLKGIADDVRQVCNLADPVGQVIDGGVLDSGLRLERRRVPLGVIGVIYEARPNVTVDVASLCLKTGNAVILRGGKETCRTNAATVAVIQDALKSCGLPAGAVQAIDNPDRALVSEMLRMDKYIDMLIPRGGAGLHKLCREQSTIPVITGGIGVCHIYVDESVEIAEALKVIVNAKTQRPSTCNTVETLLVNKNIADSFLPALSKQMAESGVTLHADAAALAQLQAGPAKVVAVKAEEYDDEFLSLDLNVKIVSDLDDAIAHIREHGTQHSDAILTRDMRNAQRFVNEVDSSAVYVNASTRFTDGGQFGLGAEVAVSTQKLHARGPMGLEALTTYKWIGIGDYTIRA", "test": "Nash assay of formaldehyde; coupled to EcAckA", "assay_type": "biochemical", "details": "formyl phosphate made in situ by 2 µM EcAckA from 50 mM ammonium formate and 5 mM ATP; 250 µM NAD(P)H, 1 mM CoA, 10 mM MgCl2, MOPS-KOH pH 7.0, 30 °C"}, "[5]": {"biological_target": "T5, EcASD (Escherichia coli, UniProt P0A9Q9)", "T5 construct": "gene asd", "T5 sequence (P0A9Q9 1-367)": "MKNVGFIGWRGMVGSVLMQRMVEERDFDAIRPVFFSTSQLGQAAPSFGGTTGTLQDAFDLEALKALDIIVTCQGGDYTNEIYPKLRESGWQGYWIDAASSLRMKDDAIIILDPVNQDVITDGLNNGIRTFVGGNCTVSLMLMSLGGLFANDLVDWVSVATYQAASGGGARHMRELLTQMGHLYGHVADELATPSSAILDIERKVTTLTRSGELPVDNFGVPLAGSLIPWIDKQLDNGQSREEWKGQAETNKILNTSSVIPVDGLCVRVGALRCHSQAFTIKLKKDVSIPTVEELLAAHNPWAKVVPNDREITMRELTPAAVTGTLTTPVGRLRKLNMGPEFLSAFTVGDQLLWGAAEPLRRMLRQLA", "test": "Nash assay of formaldehyde; coupled to EcAckA", "assay_type": "biochemical", "details": "formyl phosphate made in situ by 2 µM EcAckA from 50 mM ammonium formate and 5 mM ATP; 250 µM NAD(P)H, 1 mM CoA, 10 mM MgCl2, MOPS-KOH pH 7.0, 30 °C"}, "[6]": {"biological_target": "T6, EcGapA (Escherichia coli, UniProt P0A9B2)", "T6 construct": "gene gapA", "T6 sequence (P0A9B2 2-331)": "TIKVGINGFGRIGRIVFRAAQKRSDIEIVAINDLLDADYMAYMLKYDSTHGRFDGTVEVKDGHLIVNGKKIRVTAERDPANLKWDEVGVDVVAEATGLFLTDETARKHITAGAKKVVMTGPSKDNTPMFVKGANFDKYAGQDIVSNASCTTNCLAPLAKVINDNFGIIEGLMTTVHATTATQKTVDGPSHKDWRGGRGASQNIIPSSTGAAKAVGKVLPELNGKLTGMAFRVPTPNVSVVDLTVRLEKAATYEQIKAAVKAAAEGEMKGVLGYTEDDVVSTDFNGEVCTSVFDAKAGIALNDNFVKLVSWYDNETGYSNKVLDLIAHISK", "test": "Nash assay of formaldehyde; coupled to EcAckA", "assay_type": "biochemical", "details": "formyl phosphate made in situ by 2 µM EcAckA from 50 mM ammonium formate and 5 mM ATP; 250 µM NAD(P)H, 1 mM CoA, 10 mM MgCl2, MOPS-KOH pH 7.0, 30 °C"}, "[7]": {"substrate": "NC(=O)C1=CN([C@@H]2O[C@H](COP(=O)(O)OP(=O)(O)OC[C@H]3O[C@@H](n4cnc5c(N)ncnc54)[C@H](OP(=O)(O)O)[C@@H]3O)[C@@H](O)[C@H]2O)C=CC1", "test": "Nash assay of formaldehyde, fluorescence; coupled to EcAckA", "assay_type": "biochemical, Denitrovibrio acetiphilus", "details": "formyl phosphate made in situ by 10 µM EcAckA from 500 mM ammonium formate and 5 mM ATP, 10 mM MgCl2, MOPS-KOH pH 7.0, 30 °C, varied: cofactor", "excerpt": "(§2) Nash assay of formaldehyde, fluorescence; coupled to EcAckA on DaArgC"}, "[8]": {"biological_target": "the molecule itself", "test": "SEC; HiLoad 16/600 Superdex 200 pg in SEC buffer (75 mM KCl, 25 mM HEPES-KOH pH 7.8), loaded straight after Ni affinity purification, before crystallisation"}, "[9]": {"substrate": "O=COP(=O)(O)O", "test": "Nash assay of formaldehyde, initial slopes, synthetic formyl phosphate", "assay_type": "biochemical, Denitrovibrio acetiphilus", "details": "1 mM NADPH, 10 mM MgCl2, MOPS pH 7.0, 30 °C, freshly synthesized crude formyl phosphate", "excerpt": "Nash assay of formaldehyde, initial slopes, synthetic formyl phosphate on […]"}, "[10]": {"substrate": "NC(=O)C1=CN([C@@H]2O[C@H](COP(=O)(O)OP(=O)(O)OC[C@H]3O[C@@H](n4cnc5c(N)ncnc54)[C@H](O)[C@@H]3O)[C@@H](O)[C@H]2O)C=CC1", "test": "Nash assay of formaldehyde, fluorescence; coupled to EcAckA", "assay_type": "biochemical, Denitrovibrio acetiphilus", "details": "formyl phosphate made in situ by 10 µM EcAckA from 250 mM ammonium formate and 5 mM ATP, 10 mM MgCl2, MOPS-KOH pH 7.0, 30 °C, varied: cofactor", "excerpt": "as §2"}},
  "note": "Substitutions are numbered along the chain they refer to. Numbers in names are those of the source.",
  "data": [
    {"molecule": "CC(=O)N[C@@H](CCC(=O)O)C(=O)O", "note": "[N-acetyl-γ-glutamate]", "values": [
      {"measurement": "IC50", "setting": "[1]", "value": "5.1 ± 1", "unit": "mM"},
      {"measurement": "IC50", "setting": "[2]", "value": "24.6 ± 7.9", "unit": "mM"}
    ]},
    {"molecule": "O=COP(=O)(O)O", "note": "[formyl phosphate]", "values": [
      {"measurement": "Nash assay of formaldehyde; coupled to EcAckA", "setting": "[3]", "value": "EcArgC and EcGapA performed best under the chosen conditions"},
      {"measurement": "Nash assay of formaldehyde; coupled to EcAckA", "setting": "[4]", "value": "(EcASD, EcArgC, EcGapA, EcProA), we detected FPR activity in all cases"},
      {"measurement": "Nash assay of formaldehyde; coupled to EcAckA", "setting": "[5]", "value": "(EcASD, EcArgC, EcGapA, EcProA), we detected FPR activity in all cases"},
      {"measurement": "Nash assay of formaldehyde; coupled to EcAckA", "setting": "[6]", "value": "EcArgC and EcGapA performed best under the chosen conditions"}
    ]},
    {"molecule": "B1", "values": [
      {"measurement": "Km", "setting": "[7]", "value": "160 ± 20", "unit": "µM"},
      {"measurement": "kcat", "setting": "[7]", "value": "0.66 ± 0.03", "unit": "s⁻¹"},
      {"measurement": "kcat/Km", "setting": "[7]", "value": 4100, "unit": "M⁻¹ s⁻¹"},
      {"measurement": "binding result", "setting": "[8]", "value": "binds"}
    ]},
    {"molecule": "B2", "values": [
      {"measurement": "binding result", "setting": "[8]", "value": "binds"}
    ]},
    {"molecule": "B3", "values": [
      {"measurement": "Km", "setting": "[9]", "value": "31000 ± 7000", "unit": "µM"},
      {"measurement": "kcat", "setting": "[9]", "value": "0.11 ± 0.01", "unit": "s⁻¹"},
      {"measurement": "kcat/Km", "setting": "[9]", "value": 2.4, "unit": "M⁻¹ s⁻¹"},
      {"measurement": "Km", "setting": "[10]", "value": "280 ± 50", "unit": "µM"},
      {"measurement": "kcat", "setting": "[10]", "value": "0.08 ± 0.00", "unit": "s⁻¹"},
      {"measurement": "kcat/Km", "setting": "[10]", "value": 280, "unit": "M⁻¹ s⁻¹"},
      {"measurement": "Km", "setting": "[7]", "value": "40 ± 10", "unit": "µM"},
      {"measurement": "kcat", "setting": "[7]", "value": "0.14 ± 0.02", "unit": "s⁻¹"},
      {"measurement": "kcat/Km", "setting": "[7]", "value": 3500, "unit": "M⁻¹ s⁻¹"}
    ]},
    {"molecule": "B4", "values": [
      {"measurement": "Km", "setting": "[9]", "value": "18000 ± 7000", "unit": "µM"},
      {"measurement": "kcat", "setting": "[9]", "value": "0.12 ± 0.02", "unit": "s⁻¹"},
      {"measurement": "kcat/Km", "setting": "[9]", "value": 4.6, "unit": "M⁻¹ s⁻¹"},
      {"measurement": "Km", "setting": "[10]", "value": "340 ± 50", "unit": "µM"},
      {"measurement": "kcat", "setting": "[10]", "value": "0.09 ± 0.00", "unit": "s⁻¹"},
      {"measurement": "kcat/Km", "setting": "[10]", "value": 260, "unit": "M⁻¹ s⁻¹"},
      {"measurement": "Km", "setting": "[7]", "value": "50 ± 10", "unit": "µM"},
      {"measurement": "kcat", "setting": "[7]", "value": "0.23 ± 0.02", "unit": "s⁻¹"},
      {"measurement": "kcat/Km", "setting": "[7]", "value": 4600, "unit": "M⁻¹ s⁻¹"}
    ]},
    {"molecule": "B5", "values": [
      {"measurement": "Km", "setting": "[9]", "value": "38000 ± 9000", "unit": "µM"},
      {"measurement": "kcat", "setting": "[9]", "value": "0.17 ± 0.02", "unit": "s⁻¹"},
      {"measurement": "kcat/Km", "setting": "[9]", "value": 3.1, "unit": "M⁻¹ s⁻¹"},
      {"measurement": "Km", "setting": "[10]", "value": "300 ± 40", "unit": "µM"},
      {"measurement": "kcat", "setting": "[10]", "value": "0.12 ± 0.00", "unit": "s⁻¹"},
      {"measurement": "kcat/Km", "setting": "[10]", "value": 400, "unit": "M⁻¹ s⁻¹"},
      {"measurement": "Km", "setting": "[7]", "value": "60 ± 20", "unit": "µM"},
      {"measurement": "kcat", "setting": "[7]", "value": "0.26 ± 0.03", "unit": "s⁻¹"},
      {"measurement": "kcat/Km", "setting": "[7]", "value": 4300, "unit": "M⁻¹ s⁻¹"}
    ]}
  ]
}
